Results from the FLAb antibody collection (doi:10.7554/elife.23156).

B1: scFv; the commonest letter at each place (parent)
chain 1: EVKLDETGGGLVQPGRPMKLSCVASGFTFSDYWMNWVRQSPEKGLEWVAQIRNKPYNYETYYSDSVKGRFTISRDDSKSSVYLQMNNLRVEDMGIYYCTGSYYGMDYWGQGTSVTVS
chain 2: DVVMTQTPLSLPVSLGDQASISCRSSQSLVHSNGNTYLRWYLQKPGQSPKVLIYKVSNRFSGVPDRFSGSGSGTDFTLKISRVEAEDLGVYFCSQSTHVPWTFGGGTKLEIK

Legend:
fluorescein = variants of: B1; experiment: Kd (Tite-Seq); conditions: with fluorescein; format: scFv 4-4-20, heavy + light
[1] = variants of: B1; experiment: yeast surface expression (ratio to wild type); higher = more expressed; conditions: format: scFv 4-4-20, heavy + light

Variant | Kd (fluorescein) [µM] | yeast surface expression [1]
chain 1 G104L W108R | ≥ 10 | 0.278
chain 1 G104L W108G | ≥ 10 | 0.178
chain 1 G104Y M105N | ≥ 10 | 1.13
chain 1 G104Y M105L | ≥ 10 | 0.44
chain 1 G109V | ≥ 10 | 0.34
chain 1 G109F | ≥ 10 | 0.305
chain 1 G109E | ≥ 10 | 0.504
chain 1 G109I | ≥ 10 | 0.269
chain 1 G109N | ≥ 10 | 0.622
chain 1 G109R | ≥ 10 | 0.297
chain 1 G109W | ≥ 10 | 0.217
chain 1 G109A | 0.0525 | 0.719
chain 1 G109D | 3.64 | 0.573
chain 1 G109L | ≥ 10 | 0.217
chain 1 G109H | ≥ 10 | 0.268
chain 1 G104R G109C | ≥ 10 | 0.5
chain 1 G104K Y107P G109N | ≥ 10 | 0.307
chain 1 G104Y W108L | ≥ 10 | 0.212
chain 1 G104Q D106K | ≥ 10 | 0.274
chain 1 G104V G109W | ≥ 10 | 1.57

Variant | Kd (fluorescein) [µM] | yeast surface expression [1]
chain 1 M34C V37H | ≥ 10 | 0.466
chain 1 G104N Y107K | ≥ 10 | 0.64
chain 1 G104K W108Q | ≥ 10 | 0.294
chain 1 M34G N35Q | ≥ 10 | 0.503
chain 1 G104R D106P Y107A | ≥ 10 | 0.359
chain 1 M34S W36K | ≥ 10 | 0.646
chain 1 M34S W36Q | ≥ 10 | 0.147
chain 1 G104W | ≥ 10 | 0.587
chain 1 G104S | ≥ 10 | 0.799
chain 1 G104H | ≥ 10 | 0.716
chain 1 G104P | ≥ 10 | 0.859
chain 1 G104I | ≥ 10 | 0.325
chain 1 G104K | ≥ 10 | 0.557
chain 1 M34D N35Q | ≥ 10 | 1.78
chain 1 M105A W108Q | ≥ 10 | 0.38
chain 1 M105A W108L | 0.00184 | 0.505
chain 1 G104V D106P | ≥ 10 | 0.232
chain 1 M34P V37Q | 2.23 | 2.03
chain 1 M34P V37A | ≥ 10 | 0.897
chain 1 M34P V37L | ≥ 10 | 1.01

Variant | Kd (fluorescein) [µM] | yeast surface expression [1]
chain 1 M34P N35L | ≥ 10 | 0.779
chain 1 M34P N35Q | ≥ 10 | 0.194
chain 1 M105A D106V | ≥ 10 | 0.494
chain 1 M34A N35I | ≥ 10 | 0.267
chain 1 G104I M105S | ≥ 10 | 0.592
chain 1 G104R D106M | ≥ 10 | 0.275
chain 1 M34L N35P | ≥ 10 | 1.48
chain 1 M34L N35I | ≥ 10 | 0.531
chain 1 M34V V37D | 3.74 | 0.584
chain 1 M34W N35M | ≥ 10 | 0.653
chain 1 M34W N35C | ≥ 10 | 0.721
chain 1 M34F N35E | ≥ 10 | 0.811
chain 1 G104W G109R | ≥ 10 | 0.171
chain 1 G104W G109E | ≥ 10 | 0.167
chain 1 M34N W36A | ≥ 10 | 0.608
chain 1 G104S Y107K | ≥ 10 | 0.796
chain 1 G104H D106H | ≥ 10 | 0.586
chain 1 G104N W108M G109E | ≥ 10 | 0.217

More lines, main results first:

Kd (fluorescein) [µM] | Variant | yeast surface expression [1]
≥ 10 | chain 1 G104L W108C | 0.296
≥ 10 | chain 1 G104Y Y107H | 0.59
≥ 10 | chain 1 G109P | 0.312
≥ 10 | chain 1 G109M | 0.213
≥ 10 | chain 1 G109T | 0.551
≥ 10 | chain 1 G109Q | 0.391
0.00361 | chain 1 G109S | 0.826
≥ 10 | chain 1 G109Y | 0.212
≥ 10 | chain 1 G109K | 0.229
≥ 10 | chain 1 G109C | 0.39
≥ 10 | chain 1 G104T Y107I W108Y | 0.224
≥ 10 | chain 1 G104M W108V G109T | 0.212
≥ 10 | chain 1 M34C V37F | 0.777
0.00708 | chain 1 M34C V37I | 0.76
≥ 10 | chain 1 G104N Y107A | 0.74
0.205 | chain 1 M34R V37Q | 0.276
0.0353 | chain 1 M34R V37W | 3.88
0.195 | chain 1 M34E N35H | 0.4
0.345 | chain 1 G104I D106N G109F | 0.094

Kd (fluorescein) [µM] | Variant | yeast surface expression [1]
≥ 10 | chain 1 G104Q Y107V | 0.941
≥ 10 | chain 1 G104P Y107M G109M | 0.257
≥ 10 | chain 1 M34G N35H | 0.394
5.37 | chain 1 M34G N35P | 0.778
≥ 10 | chain 1 M34S W36A | 0.437
≥ 10 | chain 1 G104M | 0.571
≥ 10 | chain 1 G104Q | 0.824
≥ 10 | chain 1 G104R | 0.626
≥ 10 | chain 1 G104V | 0.536
≥ 10 | chain 1 G104N | 1.1
≥ 10 | chain 1 G104T | 0.599
≥ 10 | chain 1 G104L | 0.556
≥ 10 | chain 1 G104Y | 0.464
≥ 10 | chain 1 G104V M105E | 0.637
≥ 10 | chain 1 G104L G109K | 0.179
≥ 10 | chain 1 M34P V37T | 0.323
≥ 10 | chain 1 G104W M105R | 0.484
≥ 10 | chain 1 M34P N35D | 0.873
≥ 10 | chain 1 M34P N35R | 1.16

Kd (fluorescein) [µM] | Variant | yeast surface expression [1]
≥ 10 | chain 1 G104N G109Y | 0.305
≥ 10 | chain 1 M34C N35I | 0.462
≥ 10 | chain 1 M34S N35H | 0.536
≥ 10 | chain 1 G104V M105R G109W | 0.425
0.00104 | chain 1 M34F V37C | 0.75
≥ 10 | chain 1 M105A G109A | 0.685
≥ 10 | chain 1 M105A G109F | 0.203
≥ 10 | chain 1 M34L N35T | 0.824
≥ 10 | chain 1 G104R M105R | 0.672
≥ 10 | chain 1 G104R M105C | 0.315
≥ 10 | chain 1 M34V V37K | 0.747
≥ 10 | chain 1 M34N W36E | 0.587
≥ 10 | chain 1 M34N W36Y | 0.542
≥ 10 | chain 1 G104S Y107S | 0.437
≥ 10 | chain 1 G104S Y107T | 0.831
≥ 10 | chain 1 G104S Y107G | 0.303
≥ 10 | chain 1 G104H G109H | 0.765
≥ 10 | chain 1 G104L M105G Y107F | 0.414
≥ 10 | chain 1 M34K W36C | 0.509
